Source: article PMC8299537

Biological target: DPP9, short isoform (His-TEV-DPP9), co-purified with NLRP1ΔΔ (human), Q86TI2
Test: cryo-EM structure
Conditions: remark: other sources report otherwise

B1: DPP9, short isoform (His-TEV-DPP9), co-purified with NLRP1ΔΔ, Q86TI2-1 1-863 (enzyme)
chain: MATTGTPTADRGDAAATDDPAARFQVQKHSWDGLRSIIHGSRKYSGLIVNKAPHDFQFVQKTDESGPHSHRLYYLGMPYGSRENSLLYSEIPKKVRKEALLLLSWKQMLDHFQATPHHGVYSREEELLRERKRLGVFGITSYDFHSESGLFLFQASNSLFHCRDGGKNGFMVSPMKPLEIKTQCSGPRMDPKICPADPAFFSFINNSDLWVANIETGEERRLTFCHQGLSNVLDDPKSAGVATFVIQEEFDRFTGYWWCPTASWEGSEGLKTLRILYEEVDESEVEVIHVPSPALEERKTDSYRYPRTGSKNPKIALKLAEFQTDSQGKIVSTQEKELVQPFSSLFPKVEYIARAGWTRDGKYAWAMFLDRPQQWLQLVLLPPALFIPSTENEEQRLASARAVPRNVQPYVVYEEVTNVWINVHDIFYPFPQSEGEDELCFLRANECKTGFCHLYKVTAVLKSQGYDWSEPFSPGEDEFKCPIKEEIALTSGEWEVLARHGSKIWVNEETKLVYFQGTKDTPLEHHLYVVSYEAAGEIVRLTTPGFSHSCSMSQNFDMFVSHYSSVSTPPCVHVYKLSGPDDDPLHKQPRFWASMMEAASCPPDYVPPEIFHFHTRSDVRLYGMIYKPHALQPGKKHPTVLFVYGGPQVQLVNNSFKGIKYLRLNTLASLGYAVVVIDGRGSCQRGLRFEGALKNQMGQVEIEDQVEGLQFVAEKYGFIDLSRVAIHGWSYGGFLSLMGLIHKPQVFKVAIAGAPVTVWMAYDTGYTERYMDVPENNQHGYEAGSVALHVEKLPNEPNRLLILHGFLDENVHFFHTNFLVSQLIRAGKPYQLQIYPNERHSIRCPESGEHYEVTLLHFLQEYL
- stoichiometry N: 2
